Consider 8 molecules from PMC7437355.

Bounds are passed on as bounds.

Test [1] concerns the target T1, NF1(GRD), neurofibromin GAP-related domain, wild type (ITC), P21359-2.
T1 chain: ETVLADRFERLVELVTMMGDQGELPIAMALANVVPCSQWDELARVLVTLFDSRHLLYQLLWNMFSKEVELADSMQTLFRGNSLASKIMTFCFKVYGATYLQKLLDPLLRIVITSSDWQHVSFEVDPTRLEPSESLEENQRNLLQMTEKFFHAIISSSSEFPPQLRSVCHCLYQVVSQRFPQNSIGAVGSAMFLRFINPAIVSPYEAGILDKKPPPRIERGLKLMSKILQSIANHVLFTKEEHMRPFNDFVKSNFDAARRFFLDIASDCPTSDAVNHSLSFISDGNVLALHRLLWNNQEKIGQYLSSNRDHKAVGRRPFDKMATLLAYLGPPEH
Description: ITC. To be noted: chain shown with the change.

In test [2] the target is NF1(GRD), neurofibromin GAP-related domain, wild type (ITC) (human) (UniProt P21359). Description: ITC; MicroCal PEAQ-ITC, 25°C, 19 injections of 2.2 μL; 20 mM HEPES (pH 7.3), 150 mM NaCl, 5 mM MgCl2, 1 mM TCEP; one set of sites model; protein in the cell not given.
The target in the next test is NF1(GRD) D1217A (human) (UniProt P21359). The test is described as above.
The next test concerns the target NF1(GRD) R1250A (human) (UniProt P21359). The description is as above.
Test [3] addresses T2, SPRED1(EVH1), SPRED1(13–125), wild type (ITC), Q7Z699.
T2 chain: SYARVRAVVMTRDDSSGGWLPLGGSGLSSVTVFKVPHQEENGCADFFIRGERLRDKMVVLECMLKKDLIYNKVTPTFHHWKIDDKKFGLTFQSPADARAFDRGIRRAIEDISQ
Description: ITC. The following applies: chain shown with the change.

B1: SPRED1(EVH1), SPRED1(13–125), wild type (ITC), Q7Z699 R24Q (protein)
chain: SYARVRAVVMTQDDSSGGWLPLGGSGLSSVTVFKVPHQEENGCADFFIRGERLRDKMVVLECMLKKDLIYNKVTPTFHHWKIDDKKFGLTFQSPADARAFDRGIRRAIEDISQ
For orientation: Kd means the constant that tells how readily two partners part at equilibrium. Low values mean a tighter complex, high ones a looser complex. In test [1], B1 registered a Kd of 4 µM.

B2: SPRED1(13–125) R24Q (domain or fragment)
chain: SYARVRAVVMTQDDSSGGWLPLGGSGLSSVTVFKVPHQEENGCADFFIRGERLRDKMVVLECMLKKDLIYNKVTPTFHHWKIDDKKFGLTFQSPADARAFDRGIRRAIEDISQ
B2 had a fold weaker binding than wild-type SPRED1 in test [2] of 20 fold.

B3: SPRED1(13–125) G30R (domain or fragment)
chain: SYARVRAVVMTRDDSSGRWLPLGGSGLSSVTVFKVPHQEENGCADFFIRGERLRDKMVVLECMLKKDLIYNKVTPTFHHWKIDDKKFGLTFQSPADARAFDRGIRRAIEDISQ
With B3, in test [2], the fold weaker binding than wild-type SPRED1 (printed as decrease in KD) was more than 100 fold.

B4: SPRED1(13–125) S105D, purified phosphomimetic (domain or fragment)
chain: SYARVRAVVMTRDDSSGGWLPLGGSGLSSVTVFKVPHQEENGCADFFIRGERLRDKMVVLECMLKKDLIYNKVTPTFHHWKIDDKKFGLTFQDPADARAFDRGIRRAIEDISQ
In the case of B4, the fold weaker affinity than wild-type SPRED1 in test [2] came out at 10 fold.

B5: SPRED1(EVH1), SPRED1(13–125), wild type (ITC), Q7Z699 G30R (protein)
chain: SYARVRAVVMTRDDSSGRWLPLGGSGLSSVTVFKVPHQEENGCADFFIRGERLRDKMVVLECMLKKDLIYNKVTPTFHHWKIDDKKFGLTFQSPADARAFDRGIRRAIEDISQ
Consider B5, for which, in test [1], the Kd was determined as 33.7 µM.

B6: SPRED1(EVH1), SPRED1(13–125), wild type (ITC) (domain or fragment)
chain: SYARVRAVVMTRDDSSGGWLPLGGSGLSSVTVFKVPHQEENGCADFFIRGERLRDKMVVLECMLKKDLIYNKVTPTFHHWKIDDKKFGLTFQSPADARAFDRGIRRAIEDISQ
In test [2], B6 returned a Kd of 0.224 µM. Further, the fold weaker affinity than wild-type NF1(GRD) in the test with NF1(GRD) D1217A (human) is more than 50 fold. Further, the fold reduced binding against wild-type NF1(GRD) in the test with NF1(GRD) R1250A (human) was 5 fold.

B7: NF1(GRD), neurofibromin GAP-related domain, wild type (ITC), P21359-2 D1217A (protein)
chain: ETVLADRFERLVELVTMMGAQGELPIAMALANVVPCSQWDELARVLVTLFDSRHLLYQLLWNMFSKEVELADSMQTLFRGNSLASKIMTFCFKVYGATYLQKLLDPLLRIVITSSDWQHVSFEVDPTRLEPSESLEENQRNLLQMTEKFFHAIISSSSEFPPQLRSVCHCLYQVVSQRFPQNSIGAVGSAMFLRFINPAIVSPYEAGILDKKPPPRIERGLKLMSKILQSIANHVLFTKEEHMRPFNDFVKSNFDAARRFFLDIASDCPTSDAVNHSLSFISDGNVLALHRLLWNNQEKIGQYLSSNRDHKAVGRRPFDKMATLLAYLGPPEH
For B7, the Kd in test [3] worked out at 14 µM.

B8: NF1(GRD), neurofibromin GAP-related domain, wild type (ITC), P21359-2 R1250A (protein)
chain: ETVLADRFERLVELVTMMGDQGELPIAMALANVVPCSQWDELARVLVTLFDSAHLLYQLLWNMFSKEVELADSMQTLFRGNSLASKIMTFCFKVYGATYLQKLLDPLLRIVITSSDWQHVSFEVDPTRLEPSESLEENQRNLLQMTEKFFHAIISSSSEFPPQLRSVCHCLYQVVSQRFPQNSIGAVGSAMFLRFINPAIVSPYEAGILDKKPPPRIERGLKLMSKILQSIANHVLFTKEEHMRPFNDFVKSNFDAARRFFLDIASDCPTSDAVNHSLSFISDGNVLALHRLLWNNQEKIGQYLSSNRDHKAVGRRPFDKMATLLAYLGPPEH
On to B8, for which, in test [3], the Kd came out at 1.08 µM.
